Measured values reported in US20190321401A1 (JUNO THERAPEUTICS, published 2019).

Columns and labels:
[1] = molecular target: T1, HPV 16 E7 peptide on HLA-A*02:01 (human); assay: multimer staining
T1 peptide: YMLDLQPET

[2] = molecular target: T2, HPV 16 E6 peptide on HLA-A*02:01 (human); assay: multimer staining
T2 peptide: TIHDIILECV

[3] = molecular target: T3, HPV 16 E7(11-19), single-substitution variant Y1N (synthetic scanning library) peptide on HLA-A*02:01 (human); assay: activation reporter or marker
T3 peptide: NMLDLQPET

[4] = molecular target: T4, HPV 16 E7(11-19), single-substitution variant Y1F (synthetic scanning library) peptide on HLA-A*02:01 (human); assay: activation reporter or marker
T4 peptide: FMLDLQPET

[5] = molecular target: T5, HPV 16 E7(11-19), single-substitution variant Y1S (synthetic scanning library) peptide on HLA-A*02:01 (human); assay: activation reporter or marker
T5 peptide: SMLDLQPET

[6] = molecular target: T6, HPV 16 E7(11-19), single-substitution variant Y1W (synthetic scanning library) peptide on HLA-A*02:01 (human); assay: activation reporter or marker
T6 peptide: WMLDLQPET

[7] = molecular target: T7, HPV 16 E7(11-19), single-substitution variant M2C (synthetic scanning library) peptide on HLA-A*02:01 (human); assay: activation reporter or marker
T7 peptide: YCLDLQPET

[8] = molecular target: T8, HPV 16 E7(11-19), single-substitution variant M2Q (synthetic scanning library) peptide on HLA-A*02:01 (human); assay: activation reporter or marker
T8 peptide: YQLDLQPET

[9] = molecular target: T9, HPV 16 E7(11-19), single-substitution variant L3C (synthetic scanning library) peptide on HLA-A*02:01 (human); assay: activation reporter or marker
T9 peptide: YMCDLQPET

[10] = molecular target: T10, HPV 16 E7(11-19), single-substitution variant D4N (synthetic scanning library) peptide on HLA-A*02:01 (human); assay: activation reporter or marker
T10 peptide: YMLNLQPET

[11] = molecular target: T11, HPV 16 E7(11-19), single-substitution variant D4C (synthetic scanning library) peptide on HLA-A*02:01 (human); assay: activation reporter or marker
T11 peptide: YMLCLQPET

[12] = molecular target: T12, HPV 16 E7(11-19), single-substitution variant L5C (synthetic scanning library) peptide on HLA-A*02:01 (human); assay: activation reporter or marker
T12 peptide: YMLDCQPET

[13] = molecular target: T13, HPV 16 E7(11-19), single-substitution variant L5M (synthetic scanning library) peptide on HLA-A*02:01 (human); assay: activation reporter or marker
T13 peptide: YMLDMQPET

[14] = molecular target: T14, HPV 16 E7(11-19), single-substitution variant L5F (synthetic scanning library) peptide on HLA-A*02:01 (human); assay: activation reporter or marker
T14 peptide: YMLDFQPET

[15] = molecular target: T15, HPV 16 E7(11-19), single-substitution variant L5Y (synthetic scanning library) peptide on HLA-A*02:01 (human); assay: activation reporter or marker
T15 peptide: YMLDYQPET

[16] = molecular target: T16, HPV 16 E7(11-19), single-substitution variant Q6H (synthetic scanning library) peptide on HLA-A*02:01 (human); assay: activation reporter or marker
T16 peptide: YMLDLHPET

[17] = molecular target: T17, HPV 16 E7(11-19), single-substitution variant E8A (synthetic scanning library) peptide on HLA-A*02:01 (human); assay: activation reporter or marker
T17 peptide: YMLDLQPAT

[18] = molecular target: T18, HPV 16 E7(11-19), single-substitution variant E8R (synthetic scanning library) peptide on HLA-A*02:01 (human); assay: activation reporter or marker
T18 peptide: YMLDLQPRT

[19] = molecular target: T19, HPV 16 E7(11-19), single-substitution variant E8N (synthetic scanning library) peptide on HLA-A*02:01 (human); assay: activation reporter or marker
T19 peptide: YMLDLQPNT

[20] = molecular target: T20, HPV 16 E7(11-19), single-substitution variant E8D (synthetic scanning library) peptide on HLA-A*02:01 (human); assay: activation reporter or marker
T20 peptide: YMLDLQPDT

[21] = molecular target: T21, HPV 16 E7(11-19), single-substitution variant E8Q (synthetic scanning library) peptide on HLA-A*02:01 (human); assay: activation reporter or marker
T21 peptide: YMLDLQPQT

[22] = molecular target: T22, HPV 16 E7(11-19), single-substitution variant E8G (synthetic scanning library) peptide on HLA-A*02:01 (human); assay: activation reporter or marker
T22 peptide: YMLDLQPGT

[23] = molecular target: T23, HPV 16 E7(11-19), single-substitution variant E8H (synthetic scanning library) peptide on HLA-A*02:01 (human); assay: activation reporter or marker
T23 peptide: YMLDLQPHT

[24] = molecular target: T24, HPV 16 E7(11-19), single-substitution variant E8I (synthetic scanning library) peptide on HLA-A*02:01 (human); assay: activation reporter or marker
T24 peptide: YMLDLQPIT

[25] = molecular target: T25, HPV 16 E7(11-19), single-substitution variant E8P (synthetic scanning library) peptide on HLA-A*02:01 (human); assay: activation reporter or marker
T25 peptide: YMLDLQPPT

[26] = molecular target: T26, HPV 16 E7(11-19), single-substitution variant E8S (synthetic scanning library) peptide on HLA-A*02:01 (human); assay: activation reporter or marker
T26 peptide: YMLDLQPST

[27] = molecular target: T27, HPV 16 E7(11-19), single-substitution variant E8T (synthetic scanning library) peptide on HLA-A*02:01 (human); assay: activation reporter or marker
T27 peptide: YMLDLQPTT

[28] = molecular target: T28, HPV 16 E7(11-19), single-substitution variant T9C (synthetic scanning library) peptide on HLA-A*02:01 (human); assay: activation reporter or marker
T28 peptide: YMLDLQPEC

[29] = molecular target: T29, HPV 16 E7(11-19), single-substitution variant T9L (synthetic scanning library) peptide on HLA-A*02:01 (human); assay: activation reporter or marker
T29 peptide: YMLDLQPEL

[30] = molecular target: T30, HPV 16 E7(11-19), single-substitution variant T9S (synthetic scanning library) peptide on HLA-A*02:01 (human); assay: activation reporter or marker
T30 peptide: YMLDLQPES

Measured: binding result

B1: TCR 57 (TCR, V domains shown)
Valpha: TQLLEQSPQFLSIQEGENLTVYCNSSSVFSSLQWYRQEPGEGPVLLVTVVTGGEVKKLKRLTFQFGDARKDSSLHITAAQPGDTGLYLCAGARNFNKFYFGSGTKLNVKP
Vbeta: GAVVSQHPSWVICKSGTSVKIECRSLDFQATTMFWYRQFPKQSLMLMATSNEGSKATYEQGVEKDKFLINHASLTLSTLTVTSAHPEDSSFYICSARSWRGGLEQFFGPGTRLTVL
no recognition: [2]
recognises: all other assays above
